Experimental findings from patent US20250019457A1 (IBIO, published 2025) are described below.

Assay [1] concerns the target T1, mouse TROP2 (purified recombinant antigen, Acro Biosystems Cat #TR2-M52H6) (mouse, UniProt Q8BGV3 25-270).
T1 construct: Bought recombinant protein; also called msTROP2
T1 sequence: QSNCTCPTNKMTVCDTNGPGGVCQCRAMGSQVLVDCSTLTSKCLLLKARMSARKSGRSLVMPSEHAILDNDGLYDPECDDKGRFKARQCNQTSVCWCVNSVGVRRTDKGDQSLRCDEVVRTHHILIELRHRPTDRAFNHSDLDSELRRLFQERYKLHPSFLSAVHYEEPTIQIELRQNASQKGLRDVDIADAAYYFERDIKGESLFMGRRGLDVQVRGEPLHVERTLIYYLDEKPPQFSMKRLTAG
Nature of the assay: SPR, Carterra LSA; ratio of KD values, reference huTROP2. Background: Surface plasmon resonance follows binding to a sensor surface in real time, without labels.

The target of assay [2] is T2, human EpCAM (purified recombinant antigen, Acro Biosystems Cat #EPM-H5223) (human, UniProt P16422 24-265).
T2 construct: Bought recombinant protein
T2 sequence: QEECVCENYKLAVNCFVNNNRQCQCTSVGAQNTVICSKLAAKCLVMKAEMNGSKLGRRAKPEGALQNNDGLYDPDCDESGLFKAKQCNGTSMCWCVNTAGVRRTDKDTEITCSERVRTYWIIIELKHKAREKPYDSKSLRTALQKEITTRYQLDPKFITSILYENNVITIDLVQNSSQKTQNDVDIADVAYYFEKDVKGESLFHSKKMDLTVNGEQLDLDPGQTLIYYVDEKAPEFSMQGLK
Nature of the assay: SPR, Carterra LSA; antibody captured on anti-human IgG, antigen injected.

Assay [3] addresses T3, human TROP2 (purified recombinant antigen, Acro Biosystems Cat #TR2-H5223) (human, UniProt P09758 27-274).
T3 construct: Bought recombinant protein; also called huTROP2
T3 sequence: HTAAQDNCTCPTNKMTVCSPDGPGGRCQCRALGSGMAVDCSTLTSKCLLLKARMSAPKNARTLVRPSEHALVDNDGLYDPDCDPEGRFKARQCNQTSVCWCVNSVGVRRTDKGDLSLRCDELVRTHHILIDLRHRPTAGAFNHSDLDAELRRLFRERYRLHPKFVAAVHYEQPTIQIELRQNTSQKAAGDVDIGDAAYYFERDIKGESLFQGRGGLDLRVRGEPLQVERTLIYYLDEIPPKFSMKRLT
Briefly: SPR, Carterra LSA; antibody captured on anti-human IgG, antigen injected; 1:1 fit.

The target in assay [4] is T3, human TROP2 (purified recombinant …). Described as above. This is another data set of the same source.
The target in assay [5] is T1, mouse TROP2 (purified recombinant …). The assay is described as above.
The target of assay [6] is T4, cynomolgus/rhesus TROP2 (purified recombinant antigen, Acro Biosystems Cat #TR2-R52H3) (cynomolgus/rhesus, UniProt P09758 27-274 (human entry)).
T4 construct: Bought recombinant protein; also called cyTROP2; cyno/rhesus TROP2
T4 chain: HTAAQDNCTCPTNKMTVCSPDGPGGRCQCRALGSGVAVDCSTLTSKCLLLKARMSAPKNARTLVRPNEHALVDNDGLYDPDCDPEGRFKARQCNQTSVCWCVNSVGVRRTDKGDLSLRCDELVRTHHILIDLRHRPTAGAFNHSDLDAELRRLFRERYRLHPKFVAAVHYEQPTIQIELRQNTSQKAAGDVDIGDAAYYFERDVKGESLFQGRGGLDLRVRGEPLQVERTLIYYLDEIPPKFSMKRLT
The description is as above.

In assay [7] the target is T5, human Trop2 on cells (FaDu cells, endogenous; ExpiCHO cells overexpressing human Trop2) (human, UniProt P09758 27-323).
T5 construct: Cell-surface form
T5 sequence: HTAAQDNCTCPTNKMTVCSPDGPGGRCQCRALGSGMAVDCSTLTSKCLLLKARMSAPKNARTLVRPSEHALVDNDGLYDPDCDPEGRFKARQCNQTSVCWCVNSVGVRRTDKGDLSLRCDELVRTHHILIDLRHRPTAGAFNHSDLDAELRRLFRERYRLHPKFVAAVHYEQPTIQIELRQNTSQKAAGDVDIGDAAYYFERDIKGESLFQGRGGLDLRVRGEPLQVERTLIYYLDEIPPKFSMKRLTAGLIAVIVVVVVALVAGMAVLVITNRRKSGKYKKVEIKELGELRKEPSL
Briefly: flow cytometry on FaDu cells (endogenous human Trop2); average of n=1-3 experiments. (A flow cytometer gives signals particle by particle.)

The target in assay [8] is T3, human TROP2 (purified recombinant …). Briefly: MSD assay: biotinylated TROP2 on streptavidin plate, antibody titrated, anti-human SULFO-TAG detection.
Assay [9] addresses T6, mouse Trop2 on ExpiCHO cells overexpressing mouse Trop2 (mouse, UniProt Q8BGV3 25-317).
T6 construct: Cell-surface form
T6 sequence: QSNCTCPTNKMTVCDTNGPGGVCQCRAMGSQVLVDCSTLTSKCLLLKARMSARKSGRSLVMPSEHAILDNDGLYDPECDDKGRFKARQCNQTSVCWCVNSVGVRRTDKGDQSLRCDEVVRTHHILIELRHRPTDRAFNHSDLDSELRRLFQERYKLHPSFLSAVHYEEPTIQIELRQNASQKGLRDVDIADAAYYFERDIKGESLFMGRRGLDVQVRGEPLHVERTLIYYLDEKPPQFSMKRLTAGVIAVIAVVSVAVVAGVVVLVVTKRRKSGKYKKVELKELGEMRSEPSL
Briefly: flow cytometry on ExpiCHO cells overexpressing mouse Trop2, percent of cells bound.

In assay [10] the target is T5, human Trop2 on cells (FaDu cells, …). Briefly: flow cytometry on ExpiCHO cells overexpressing human Trop2, percent of cells bound.

By Kd is commonly meant the constant that tells how readily two partners part at equilibrium. For orientation: koff means the first-order rate constant of dissociation. A word on the kon: it is a measure of how fast the partners come together. Usually EC50 stands for the concentration needed to bring the measured effect to its halfway point. Low values mean an effect from little substance, high ones a need for much substance. The EC50 (read off the curve) is the midpoint of the concentration-response curve.

Read-outs that look alike come from different tables or passages of the source.

B1: SD-685208 (antibody, V domains shown)
VH: AVTLDESGGGLQTPGGALSLVCKASGFDFIDYDMFWVRQAPGKGLEWVGVINRSGSYTNYAPAVKGRATISRDNGQSTMRLQLNNLRAEDTGTYYCARGACTHCWDADSAGYIDAWGHGTEVIVSS
VL: ALALTQPSSVSANPGETVKITCSGSSGSYGWFQQKSPGSAPVTVIYWNDKRPSDIPSRFSGSTSGSTGTLTITGVQADDEAVYFCGNADSSGTFGAGTTLTVL
notes: Chicken/human chimera
On to B1, for which the “Fold difference in affinity (huTROP2:msTROP2)” value (“Fold difference in affinity” below) in [1] was 3 fold. For the same molecule, in assay [2], the binding result is “no binding (tested: 1 µM top concentration)”. Besides, the Kd in [3] came out at 3810 pM; in [4], 3810 pM; in [5] it was 11400 pM; in assay [6], 6080 pM. Also, the koff in [3] was 0.000898 s⁻¹. In assay [3], the kon came to 235000 M⁻¹ s⁻¹. The EC50 in [7] amounted to 513 pM. The “EC50 (read off the curve)” value in [8] was roughly 80 pM.

B2: SD-320063 (antibody, V domains shown)
VH: AVTLDESGGGLQTPGGGLSLVCKASGFDFIDYDMFWVRQAPGKGLAWVGVINRSGSYTNYAPAVKGRATISRDNGQSTVRLQLNNLRAEDTGTYYCAKGVCTHCWDADSAGNIDAWGHGTEVIVSS
VL: ALALTQPSSVSANPGETVEITCSGGSGNYGWFQQKSPGSAPVTVIYNNNYRLSDIPSRFSGSASGSTATLTITGVRVEDEAVYFCGSADSTYVGLFGAGTTLTVL
notes: Chicken/human chimera
For B2, in [1], the “Fold difference in affinity” value turned out to be 6.9 fold. Also, in [2], the binding result is “no binding (tested: 1 µM top concentration)”. The equilibrium dissociation constant (Kd) turned out to be 230 pM in [3], 230 pM in assay [4], 1590 pM in assay [5] and 110 pM in assay [6]. Besides, the koff in [3] turned out to be 3.42e-05 s⁻¹. In addition, the kon in assay [3] amounted to 148000 M⁻¹ s⁻¹. For the same molecule, the “EC50 (read off the curve)” value in [9] is roughly 30 pM. This molecule showed an EC50 in [7] of 1990 pM.

B3: SD-168804 (antibody, V domains shown)
VH: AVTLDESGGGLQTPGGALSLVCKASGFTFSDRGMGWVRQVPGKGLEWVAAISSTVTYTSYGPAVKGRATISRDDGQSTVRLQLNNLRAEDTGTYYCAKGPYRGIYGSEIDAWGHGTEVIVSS
VL: ALALTQPSSVSANPGETVKITCSGGSYSYGSYYYGWYQQKSPGSAPVTVIYDNDKRPSGIPSRFSGSKSGSTGTLTITGVQAEDEAVYFCGSTDSSSTAAFGAGTTLTVL
notes: Chicken/human chimera
In the case of B3, the “Fold difference in affinity” value in [1] came to 1.2 fold. Moreover, in assay [2], the binding result is recorded as “no binding (tested: 1 µM top concentration)”. For the same molecule, the Kd turned out to be 11500 pM in assay [3], 11500 pM in assay [4], 13600 pM in assay [5] and 15300 pM in assay [6]. In addition, the koff in assay [3] turned out to be 0.000294 s⁻¹. Also, the kon in assay [3] came to 25500 M⁻¹ s⁻¹. Further, the “EC50 (read off the curve)” value in [9] was roughly 5000 pM. Besides, a half-maximal effect in [7] (EC50) was put at 1050 pM.

B4: SD-394517 (antibody, V domains shown)
VH: AVTLDESGGGLQTPGGALSLVCKGSGFTFSSYAMGWVRQAPGKGLEYVAAISSGSSTGYGAAVKGRATISRDTGQSTVRLQLNNLRAEDTATYYCAKSGYGGSASYVSDIDAWGHGTEVIVSS
VL: ALALTQPSSVSANPGETVEITCSGGGDYYGTYYYGWYQQKAPGSAPVTVIYDNTKRPSNIPSRFSGSTSGSTNTLTITGVQADDEAVYYCGSYDSSAGIFGAGTTLTVL
notes: Chicken/human chimera
B4: the “Fold difference in affinity” value in assay [1] turned out to be 1.5 fold. For the same molecule, the binding result in assay [2] is on record as “no binding (tested: 1 µM top concentration)”. In addition, the Kd worked out at 760 pM in assay [3], 760 pM in [4], 1180 pM in [5] and 920 pM in assay [6]. In [3], the off-rate (koff) was 0.000303 s⁻¹. In addition, the kon in assay [3] amounted to 396000 M⁻¹ s⁻¹. In assay [7], the concentration giving a half-maximal response (EC50) turned out to be 2040 pM.

B5: SD-457798 (antibody, V domains shown)
VH: AVTLDESGGGLQTPGGALSLVCKGSGFTFSSYAMGWVRQAPGKGLEYVAAISSGSSTGYGAAVKGRATISKDTGQSTVRLQLNNLRAEDTATYYCAKSGYGGSASYVSDIDAWGHGTEVIVSS
VL: ALALTQPSSVSANPGETVEITCSGGGDYYGTYYYGWYQQKAPGSAPVTVIYDNTKRPSNIPSRFSGSTSGSTNTLTITGVQADDEAIYFCGSYKSNTFGAGTTLTVL
notes: Chicken/human chimera
As for B5, in assay [1], the “Fold difference in affinity” value is 0.5 fold. Further, in [2], the binding result is reported as “no binding (tested: 1 µM top concentration)”. Besides, the dissociation constant (Kd) is 640 pM in [3], 640 pM in assay [4], 340 pM in [5] and 960 pM in [6]. Besides, in assay [3], the koff was determined as 0.000259 s⁻¹. Further, the association rate constant (kon) in assay [3] stood at 403000 M⁻¹ s⁻¹. This molecule also displayed an EC50 in assay [7] of 1060 pM.

B6: SD-970200 (antibody, V domains shown)
VH: AVTLDESGGGLQTPGGALSLVCKGSGFTFSSYAMGWVRQAPGKGLEYVAAISSGSSTGYGAAVKGRATISKDTGQSTVRLQLNNLRAEDTATYYCAKSGYGGSASYVSDIDAWGHGTEVIVSS
VL: ALALTQPSSVSANPGETVEITCSGGGDYYGTYYYGWYQQKAPGSAPVTVIYDNTKRPSNIPSRFSGSTSGSTNTLTITGVQADDEAVYYCGSYDSSAGIFGAGTTLTVL
notes: Chicken/human chimera
On to B6, for which the “Fold difference in affinity” value in assay [1] is 3 fold. Moreover, in assay [2], the binding result is reported as “no binding (tested: 1 µM top concentration)”. Besides, the Kd in assay [3] was 210 pM; in [4], 210 pM; in assay [5], 630 pM; in assay [6], 290 pM. For the same molecule, the koff in [3] came out at 0.000114 s⁻¹. Further, the kon in assay [3] stood at 555000 M⁻¹ s⁻¹. Moreover, the “EC50 (read off the curve)” value in assay [10] was roughly 50 pM; in [8], roughly 200 pM. The concentration for a half-maximal effect (EC50) in assay [7] was determined as 1530 pM.

B7: RS7 (antibody, V domains shown)
VH: QVQLQQSGSELKKPGASVKVSCKASGYTFTNYGMNWVKQAPGQGLKWMGWINTYTGEPTYTDDFKGRFAFSLDTSVSTAYLQISSLKADDTAVYFCARGGFGSSYWYFDVWGQGSLVTVSS
VL: DIQLTQSPSSLSASVGDRVSITCKASQDVSIAVAWYQQKPGKAPKLLIYSASYRYTGVPDRFSGSGSGTDFTLTISSLQPEDFAVYYCQQHYITPLTFGAGTKVEIKR
As to B7, the Kd in assay [3] was determined as 1810 pM; in assay [4], 1810 pM; in assay [6] it was 2050 pM. For the same molecule, the koff in assay [3] was found to be 0.000201 s⁻¹. In addition, in [3], the kon was 111000 M⁻¹ s⁻¹. Further, the “EC50 (read off the curve)” value was roughly 30 pM in assay [10] and roughly 300 pM in [8]. In [7], this molecule gave an EC50 of 2000 pM.
